Test results taken from patent US20050234225A1 (Eli Lilly, published 2005).

Experiments:
cell-surface KDR = cell-surface KDR (human, UniProt P35968 20-1356); test: cell-based or functional assay
[1] = target: T1, KDR-alkaline phosphatase (AP) soluble fusion protein (human, UniProt P35968 20-764); test: direct binding ELISA: Fab on KDR-coated plate, detected with anti-human Fab-HRP, A450
T1 construct: Expressed in NIH 3T3 cells as in Lu et al. 2000; also called KDR-AP; full length KDR-AP; not shown: alkaline phosphatase (AP) fusion partner
T1 sequence (P35968 20-764): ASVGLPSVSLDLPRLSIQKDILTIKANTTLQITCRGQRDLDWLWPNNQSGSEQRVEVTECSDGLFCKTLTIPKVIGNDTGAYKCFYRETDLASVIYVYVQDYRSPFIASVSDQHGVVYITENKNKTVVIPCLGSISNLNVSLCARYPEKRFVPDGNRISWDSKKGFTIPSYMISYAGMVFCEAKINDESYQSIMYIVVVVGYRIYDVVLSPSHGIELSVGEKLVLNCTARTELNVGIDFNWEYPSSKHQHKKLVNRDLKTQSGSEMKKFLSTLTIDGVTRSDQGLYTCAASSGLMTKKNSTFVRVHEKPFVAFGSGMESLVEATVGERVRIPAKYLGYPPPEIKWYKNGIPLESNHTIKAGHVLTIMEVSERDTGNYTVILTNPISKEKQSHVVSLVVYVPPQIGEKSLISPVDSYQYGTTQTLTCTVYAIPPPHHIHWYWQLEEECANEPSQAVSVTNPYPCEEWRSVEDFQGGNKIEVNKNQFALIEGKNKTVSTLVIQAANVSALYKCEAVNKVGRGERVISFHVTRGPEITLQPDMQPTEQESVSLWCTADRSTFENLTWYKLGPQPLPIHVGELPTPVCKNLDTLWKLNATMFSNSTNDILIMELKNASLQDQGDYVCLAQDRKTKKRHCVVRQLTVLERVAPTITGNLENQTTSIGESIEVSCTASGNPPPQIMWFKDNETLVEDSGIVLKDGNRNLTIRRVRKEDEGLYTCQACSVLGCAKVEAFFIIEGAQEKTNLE
Method: (§1) In a direct binding assay, various amounts of soluble Fab proteins were added to KDR-coated 96-well Maxi-sorp microtiter plates and incubated at RT for 1 h, after which the plates were washed 3 times with PBST. The plates were then incubated at RT for 1 h with 100 μl of a rabbit anti-human Fab antibody-HRP conjugate (Jackson ImunoResearch Laboratory Inc., West Grove, Pa.). The plates were washed and developed following the procedure described above for the phage ELISA. In a competitive KDR/VEGF blocking assay, various amounts of Fab proteins were mixed with a fixed amount of KDR-AP (100 ng) and incubated at RT for 1 h. The mixtures were then transferred to 96-well microtiter plates precoated with VEGF₁₆₅ (200 ng/well) and incubated at RT for an additional 2 h, after which the plates were washed 5 times and the substrate for AP (p-nitrophenyl phosphate, Sigma) was added. Absorbance at 405 nm was measured to quantify the bound KDR-AP molecules (8).
(§2) Clone D2C6 and D2H2 are more efficient binders, followed by clone D1H4 and D1F7. All four Fabs also block KDR binding to immobilized VEGF (FIG. 2B). […] Only clone D1F7 blocks VEGF from binding to Flk-1 (FIG. 2C), with an IC₅₀ of approximately 15 nM.

[2] = target: T1, KDR-alkaline phosphatase (AP) soluble …; test: competitive blocking ELISA: Fab pre-incubated with KDR-AP, then binding of KDR-AP to immobilised VEGF165, A405
Method: FIG. 2 depicts binding to KDR, blocking of KDR/VEGF interaction and blocking of Flk-1/VEGF interaction by human anti-KDR Fab fragments. FIG. 2A: Dose-dependent binding of human anti-KDR Fab to immobilized KDR. FIG. 2B: Inhibition of KDR binding to immobilized VEGF by anti-KDR Fab. FIG. 2C: Inhibition of Flk-1 binding to immobilized VEGF by anti-KDR Fab. Various amounts of Fab proteins were incubated with a fixed amount of KDR-AP (2B) or Flk-1-AP (2C) in solution at RT for 1 h.
as §1, §2

[3] = target: T2, Flk-1-AP soluble fusion protein (murine, UniProt P35918 20-762); test: competitive blocking ELISA: Fab pre-incubated with Flk-1-AP, then binding of Flk-1-AP to immobilised VEGF165, A405
T2 construct: Soluble fusion protein from NIH 3T3 cells; also called fetal liver kinase 1; not shown: alkaline phosphatase (AP) fusion partner
T2 sequence (P35918 20-762): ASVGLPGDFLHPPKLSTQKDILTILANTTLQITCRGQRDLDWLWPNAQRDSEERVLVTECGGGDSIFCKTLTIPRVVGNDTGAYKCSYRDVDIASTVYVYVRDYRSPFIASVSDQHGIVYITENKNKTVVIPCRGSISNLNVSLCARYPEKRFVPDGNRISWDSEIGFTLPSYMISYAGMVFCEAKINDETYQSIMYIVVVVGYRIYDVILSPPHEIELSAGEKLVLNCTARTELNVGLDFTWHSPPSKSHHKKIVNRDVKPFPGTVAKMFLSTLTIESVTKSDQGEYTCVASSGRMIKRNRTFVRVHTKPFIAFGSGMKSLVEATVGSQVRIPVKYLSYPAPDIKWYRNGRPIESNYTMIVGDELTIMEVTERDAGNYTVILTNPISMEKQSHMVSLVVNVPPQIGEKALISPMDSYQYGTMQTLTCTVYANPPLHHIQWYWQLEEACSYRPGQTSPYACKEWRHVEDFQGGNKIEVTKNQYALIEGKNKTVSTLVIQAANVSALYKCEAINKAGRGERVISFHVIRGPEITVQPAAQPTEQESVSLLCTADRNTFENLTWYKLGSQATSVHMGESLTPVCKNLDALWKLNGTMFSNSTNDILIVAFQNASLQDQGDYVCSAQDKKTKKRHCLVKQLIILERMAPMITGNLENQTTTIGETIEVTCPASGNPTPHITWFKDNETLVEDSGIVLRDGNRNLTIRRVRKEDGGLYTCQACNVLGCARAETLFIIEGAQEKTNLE

[4] = target: T1, KDR-alkaline phosphatase (AP) soluble …; test: BIAcore SPR, KDR immobilized
Method: The binding kinetics of soluble Fab proteins to KDR were measured by surface plasmon resonance using a BIAcore biosensor (Pharmacia Biosensor). KDR-AP fusion protein was immobilized onto a sensor chip and soluble Fab proteins were injected at concentrations ranging from 1.5 nM to 100 nM. Sensorgrams were obtained at each concentration and were evaluated using a program, BIA Evaluation 2.0, to determine the rate constants kon and koff. Kd was calculated from the ratio of rate constants koff/kon.
Antibody affinity or avidity was determined by BIAcore analysis, as above. The binding kinetics, i.e., the association rate constant (kon) and the dissociation rate constant (koff), of the anti-KDR antibodies were measured and the dissociation constant, Kd, was calculated (Table 4).

[5] = target: T1, KDR-alkaline phosphatase (AP) soluble …; test: competitive blocking ELISA: antibody pre-incubated with KDR-AP, then binding of KDR-AP to immobilised VEGF165, A405
Method: (§3) FIG. 6 depicts binding to KDR and blocking of KDR/VEGF interaction by human anti-KDR antibodies. FIG. 6A: Dose-dependent binding of anti-KDR to immobilized KDR. Various amounts of antibodies were incubated at RT for 1 h in 96-well plates coated with KDR FIG. 6B: Inhibition of binding of KDR to immobilized VEGF by human anti-KDR antibodies. Various amounts of the antibodies were incubated with a fixed amount of KDR-AP in solution at RT for 1 hr.
The efficacy of the anti-KDR antibodies for blocking KDR from binding to VEGF was measured with a competition assay. Various amounts of antibodies were mixed with a fixed amount of KDR-AP (100 ng) and incubated at RT for 1 h. The mixtures were then transferred to 96-well microtiter plates precoated with VEGF₁₆₅ (200 ng/well) and incubated at RT for an additional 2 h, after which the plates were washed 5 times and the substrate for AP (p-nitrophenyl phosphate, Sigma) was added, followed by reading the absorbance at 405 nm to quantify the bound KDR-AP molecules. […] The IC₅₀ is approximately 0.8 to 1.0 nM for all three antibodies.

[6] = target: T1, KDR-alkaline phosphatase (AP) soluble …; test: BIAcore SPR, KDR immobilized; remark: listed apart in the source
[7] = target: T1, KDR-alkaline phosphatase (AP) soluble …; test: direct binding ELISA: antibody on KDR-coated plate, detected with anti-human IgG Fc-HRP, A450
Method: as §3
Anti-KDR antibodies were assessed for KDR binding and blocking of VEGF binding. In the direct binding assay, various amounts of antibodies were added to KDR-coated 96-well Maxi-sorp microtiter plates (Nunc, Roskilde, Denmark) and incubated at room temperature (RT) for 1 h, after which the plates were washed 3 times with PBS containing 0.1% Tween-20. The plates were then incubated at RT for 1 h with 100 μl of a rabbit anti-human IgG Fc-HRP conjugate (Jackson ImmunoResearch Laboratory Inc., West Grove, Pa.). The plates were washed and developed as above.

Chain of cell-surface KDR (P35968 20-1356): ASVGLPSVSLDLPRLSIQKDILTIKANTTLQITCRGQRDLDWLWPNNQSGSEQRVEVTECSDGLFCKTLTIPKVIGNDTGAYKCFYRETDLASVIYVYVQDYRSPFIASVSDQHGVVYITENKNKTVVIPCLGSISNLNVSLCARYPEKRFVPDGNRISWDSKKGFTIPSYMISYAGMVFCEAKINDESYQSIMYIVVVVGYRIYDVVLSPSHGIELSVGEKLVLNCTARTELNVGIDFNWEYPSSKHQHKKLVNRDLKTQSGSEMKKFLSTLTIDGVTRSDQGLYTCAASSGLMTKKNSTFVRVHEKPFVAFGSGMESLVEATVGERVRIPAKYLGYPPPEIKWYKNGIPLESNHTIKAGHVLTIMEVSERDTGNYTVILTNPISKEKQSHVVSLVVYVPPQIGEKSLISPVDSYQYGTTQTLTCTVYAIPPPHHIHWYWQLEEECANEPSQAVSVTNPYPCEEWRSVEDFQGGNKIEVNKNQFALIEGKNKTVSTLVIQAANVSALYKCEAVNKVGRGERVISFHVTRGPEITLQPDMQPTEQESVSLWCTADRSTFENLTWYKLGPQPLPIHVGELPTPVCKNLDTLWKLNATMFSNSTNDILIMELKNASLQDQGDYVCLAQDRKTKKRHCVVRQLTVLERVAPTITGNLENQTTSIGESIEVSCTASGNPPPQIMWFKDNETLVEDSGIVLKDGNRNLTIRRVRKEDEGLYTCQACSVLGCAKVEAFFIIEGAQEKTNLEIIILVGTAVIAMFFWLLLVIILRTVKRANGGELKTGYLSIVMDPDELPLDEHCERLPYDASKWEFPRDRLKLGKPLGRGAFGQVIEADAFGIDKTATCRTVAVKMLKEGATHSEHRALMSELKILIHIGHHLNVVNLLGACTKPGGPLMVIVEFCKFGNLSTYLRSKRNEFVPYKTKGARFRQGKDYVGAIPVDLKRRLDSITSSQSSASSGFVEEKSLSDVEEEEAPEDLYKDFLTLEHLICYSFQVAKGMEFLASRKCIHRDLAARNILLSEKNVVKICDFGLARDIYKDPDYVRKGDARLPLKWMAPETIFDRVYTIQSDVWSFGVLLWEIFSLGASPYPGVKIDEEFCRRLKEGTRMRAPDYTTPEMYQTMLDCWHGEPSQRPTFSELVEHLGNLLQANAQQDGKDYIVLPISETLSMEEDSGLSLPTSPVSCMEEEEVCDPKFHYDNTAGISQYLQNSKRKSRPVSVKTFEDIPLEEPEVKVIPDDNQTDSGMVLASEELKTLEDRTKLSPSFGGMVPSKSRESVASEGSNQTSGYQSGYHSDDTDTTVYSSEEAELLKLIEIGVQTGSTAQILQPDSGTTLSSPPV

| Binder | EC50 of inhibition of VEGF-stimulated [3H]-TdR incorporation in HUVEC (cell-surface KDR) [nM] | EC50 (read off the curve) [1] [nM] | IC50 (read off the curve) [2] [nM] | binding result [3] | Kd [4] [nM] | koff [4] [s⁻¹] | kon [4] [M⁻¹ s⁻¹] | IC50 (read off the curve) [5] [nM] | fold change of Kd against the monovalent Hu-2C6 Fab [6] [fold] | EC50 (read off the curve) [7] [nM] | fold improvement in Kd against Hu-2C6 [6] [fold] | fold increase in overall binding avidity against Hu-1121 Fab [6] [fold] |
| --- | --- | --- | --- | --- | --- | --- | --- | --- | --- | --- | --- | --- |
| D1F7 Fab (Fab, V domains shown) VH: EVQLVQSGAEVKKPGASVKVSCKASGGTFSSYAISWVRQAPGQGLEWMGGIIPIFGTANYAQKFQGRVTFTADKSTSTAYMELRSLRSDDTAVYYCARGYDYYDSSGVASPFDYWGQGTLVTVSS VL: not shown | ~15 |  |  |  |  |  |  |  |  |  |  |  |
| D2C6 Fab (Fab, V domains shown, Soluble human Fab from E. coli HB2151; also called Hu-2C6 Fab; Hu-2C6) VH: EVQLVQSGGGLVKPGGSLRLSCAASGFTFSSYSMNWVRQAPGKGLEWVSSISSSSSYIYYADSVKGRFTISRDNAKNSLYLQMNSLRAEDTAVYYCARVTDAFDIWGQGTMVTVSS VL: EIVMTQSPATLSLSPGERATLSCRASQSVSSYLAWYQQKPGQAPRLLIYDSSNRATGIPARFSGSGSGTDFTLTISSLEPEDFATYYCLQHNTFPPTFGQGTKVEIK | ~0.5 | ~0.7 | ~3 | no binding (tested: about 60 nM) | 3.6 | 0.00055 | 171000 |  |  |  |  |  |
| D1H4 Fab (Fab, V domains shown, Soluble human Fab from E. coli HB2151; also called DlH4; Hu-1H4 Fab) VH: EVQLVQSGGGLVKPGGSLRLSCAASGFTFSSYSMNWVRQAPGKGLEWVSSISSSSSYIYYADSVKGRFTISRDNAKNSLYLQMNSLRAEDTAVYYCARVTDAFDIWGQGTMVTVSS VL: QSALTQPASLSGSPGQSITISCAGTTTDLTYYDLVSWYQQHPGQAPKLVIYDGNKRPSGVSNRFSGSKSGNTASLTISGLQAEDEADYYCNSYVSSRFYVFGTGTKVTVL | ~0.5 | ~1 | ~2 | no binding (tested: about 60 nM) |  |  |  |  |  |  |  |  |
| IMC-2C6 IgG (antibody, V domains shown) VH: EVQLVQSGGGLVKPGGSLRLSCAASGFTFSSYSMNWVRQAPGKGLEWVSSISSSSSYIYYADSVKGRFTISRDNAKNSLYLQMNSLRAEDTAVYYCARVTDAFDIWGQGTMVTVSS VL: EIVMTQSPATLSLSPGERATLSCRASQSVSSYLAWYQQKPGQAPRLLIYDSSNRATGIPARFSGSGSGTDFTLTISSLEPEDFATYYCLQHNTFPPTFGQGTKVEIK |  |  |  |  | 0.2 | 4.3e-05 | 212000 | ~0.7 | ~18 | ~0.4 |  |  |
| Hu-1121 Fab (Fab, V domains shown, see also CLM-00007) with new light chains) VH: EVQLVQSGGGLVKPGGSLRLSCAASGFTFSSYSMNWVRQAPGKGLEWVSSISSSSSYIYYADSVKGRFTISRDNAKNSLYLQMNSLRAEDTAVYYCARVTDAFDIWGQGTMVTVSS VL: DIQMTQSPSSVSASIGDRVTITCRASQGIDNWLGWYQQKPGKAPKLLIYDASNLDTGVPSRFSGSGSGTYFTLTISSLQAEDFAVYFCQQAKAFPPTFGGGTKVDIK |  |  |  |  | 0.11 | 3.1e-05 | 296000 |  |  |  | 33 |  |
| IMC-1121 IgG (antibody, V domains shown) VH: EVQLVQSGGGLVKPGGSLRLSCAASGFTFSSYSMNWVRQAPGKGLEWVSSISSSSSYIYYADSVKGRFTISRDNAKNSLYLQMNSLRAEDTAVYYCARVTDAFDIWGQGTMVTVSS VL: DIQMTQSPSSVSASIGDRVTITCRASQGIDNWLGWYQQKPGKAPKLLIYDASNLDTGVPSRFSGSGSGTYFTLTISSLQAEDFAVYFCQQAKAFPPTFGGGTKVDIK |  |  |  |  | 0.05 | 2.5e-05 | 479000 | ~0.8 |  | ~0.3 |  | ~2 |
| D2H2 Fab (Fab, V domains shown, Soluble human Fab from E. coli HB2151; also called Hu-2H2 Fab) VH: EVQLVQSGGGLVKPGGSLRLSCAASGFTFSSYSMNWVRQAPGKGLEWVSSISSSSSYIYYADSVKGRFTISRDNAKDSLYLQMNSLRAEDTAVYYCARVTDAFDIWGQGTMVTVSS VL: DIQLTQSPSSVSASVGDRVTITCRASQGISSRLAWYQQKPGKAPKLLIYAASSLQTGVPSRFSGSGSGTDFTLTISSLQPEDFATYYCQQANRFPPTFGPGTKVDIK | ~0.8 | ~0.7 | ~2 | no binding (tested: about 60 nM) |  |  |  |  |  |  |  |  |
